Data taken from patent US20200399389A1 (PHANES THERAPEUTICS, published 2020).
Substitutions are numbered along the chain they refer to.

Columns and labels:
[1] = target: T1, HIS-tagged human CD73 (huCD73-HIS) (human, UniProt P21589 27-547); experiment: cell-based or functional assay
T1 sequence: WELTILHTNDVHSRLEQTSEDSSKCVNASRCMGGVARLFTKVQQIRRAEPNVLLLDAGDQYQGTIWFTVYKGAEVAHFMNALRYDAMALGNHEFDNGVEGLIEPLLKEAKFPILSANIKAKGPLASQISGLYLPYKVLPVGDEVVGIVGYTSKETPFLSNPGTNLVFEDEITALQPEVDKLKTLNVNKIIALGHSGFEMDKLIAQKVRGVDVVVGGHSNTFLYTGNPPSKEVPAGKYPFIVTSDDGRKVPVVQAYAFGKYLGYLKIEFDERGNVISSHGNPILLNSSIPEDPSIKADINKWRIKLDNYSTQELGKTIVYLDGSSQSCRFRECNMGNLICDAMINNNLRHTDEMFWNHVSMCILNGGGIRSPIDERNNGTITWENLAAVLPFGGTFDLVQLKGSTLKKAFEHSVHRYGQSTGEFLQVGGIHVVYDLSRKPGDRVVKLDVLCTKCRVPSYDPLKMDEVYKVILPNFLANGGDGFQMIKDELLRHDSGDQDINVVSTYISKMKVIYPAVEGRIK

[2] = target: T2, human CD73 expressed on the surface of cells (human, UniProt P21589 27-549); experiment: cell-based or functional assay
T2 sequence: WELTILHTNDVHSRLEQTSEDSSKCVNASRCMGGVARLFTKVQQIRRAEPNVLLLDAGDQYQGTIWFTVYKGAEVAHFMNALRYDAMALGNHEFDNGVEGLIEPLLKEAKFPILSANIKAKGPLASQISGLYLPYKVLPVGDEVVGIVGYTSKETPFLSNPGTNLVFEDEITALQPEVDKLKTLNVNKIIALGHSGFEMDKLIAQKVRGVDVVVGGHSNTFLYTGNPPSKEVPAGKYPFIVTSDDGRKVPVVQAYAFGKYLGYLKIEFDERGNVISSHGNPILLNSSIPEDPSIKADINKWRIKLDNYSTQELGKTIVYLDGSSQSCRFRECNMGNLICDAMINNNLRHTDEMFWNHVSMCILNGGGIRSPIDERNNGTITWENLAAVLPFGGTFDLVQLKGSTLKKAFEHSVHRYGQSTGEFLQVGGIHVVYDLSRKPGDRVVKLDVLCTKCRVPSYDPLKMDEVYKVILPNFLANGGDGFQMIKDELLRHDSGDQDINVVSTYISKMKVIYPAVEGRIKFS

B1: 60A9-H1L1 (antibody, V domains shown)
VH: EVQLVESGGGLVQPGQSLKLSCKASGYAFSSYWMNWVRQAPGKGLEWMGQIYPGDGDTYYNPSVKGRFTISADTSKNTAYLQLNNLRAEDTAVYYCAREAIYYGNYVFTYWGQGTLVTVSS
VL: DIQMTQSPSLLSASLGDRVTITCKSSQSLLNSSNQKNYLAWYQQKPGQSPKLLIYFASTRDSGVPDRFSGSGSGTDFTLTISSLEPEDFATYYCQQHYSTPLTFGGGTKLEIK
IC50 (nM), huCD73 enzymatic assay in solution [1]: 3.34 nM

B2: 60A9-H5L1 (antibody, V domains shown)
VH: B1 VH with R38K, A40R, M48I, N61S, P62G, S63K, V64F, F68A, I70L, T74K
VL: B1 VL
IC50 (nM), cell-based CD73 activity assay (A375 cells) [2]: 61 nM

B3: 60A9-H2L3 (antibody, V domains shown)
VH: B1 VH with Q16G, K19R, M48V, A79L, L83M, N85S
VL: B1 VL with I54V
IC50 (nM), huCD73 enzymatic assay in solution [1]: 4.57 nM

B4: 60A9-H2L1 (antibody, V domains shown)
VH: B1 VH with Q16G, K19R, M48V, A79L, L83M, N85S
VL: B1 VL
IC50 (nM), huCD73 enzymatic assay in solution [1]: 4.13 nM

B5: 60A9-H5L4 (antibody, V domains shown)
VH: B1 VH with R38K, A40R, M48I, N61S, P62G, S63K, V64F, F68A, I70L, T74K
VL: B1 VL with Q3V, T22S, I54V, Y93F, G106A
IC50 (nM), cell-based CD73 activity assay (A375 cells) [2]: 30.1 nM

B6: 60A9-H3L2 (antibody, V domains shown)
VH: B1 VH with M48I, F68A, I70L, T74K
VL: B1 VL with Q3V, L10S
IC50 (nM), huCD73 enzymatic assay in solution [1]: 4.97 nM

B7: 60A9-H3L4 (antibody, V domains shown)
VH: B1 VH with M48I, F68A, I70L, T74K
VL: B1 VL with Q3V, T22S, I54V, Y93F, G106A
IC50 (nM), cell-based CD73 activity assay (A375 cells) [2]: 134 nM

B8: 60A9-H4L2 (antibody, V domains shown)
VH: B1 VH with M48I, N61S, P62G, F68A, I70L, T74K
VL: B1 VL with Q3V, L10S
IC50 (nM), huCD73 enzymatic assay in solution [1]: 4.97 nM

B9: 60A9-H3L3 (antibody, V domains shown)
VH: B1 VH with M48I, F68A, I70L, T74K
VL: B1 VL with I54V
IC50 (nM), huCD73 enzymatic assay in solution [1]: 2.09 nM
IC50 (nM), cell-based CD73 activity assay (A375 cells) [2]: 65.7 nM

B10: 60A9-H4L4 (antibody, V domains shown)
VH: B1 VH with M48I, N61S, P62G, F68A, I70L, T74K
VL: B1 VL with Q3V, T22S, I54V, Y93F, G106A
IC50 (nM), cell-based CD73 activity assay (A375 cells) [2]: 135 nM

B11: 60A9-H5L2 (antibody, V domains shown)
VH: B1 VH with R38K, A40R, M48I, N61S, P62G, S63K, V64F, F68A, I70L, T74K
VL: B1 VL with Q3V, L10S
IC50 (nM), cell-based CD73 activity assay (A375 cells) [2]: 57.3 nM

B12: 60A9-H2L4 (antibody, V domains shown)
VH: B1 VH with Q16G, K19R, M48V, A79L, L83M, N85S
VL: B1 VL with Q3V, T22S, I54V, Y93F, G106A
IC50 (nM), cell-based CD73 activity assay (A375 cells) [2]: 46 nM

B13: 60A9-H1L2 (antibody, V domains shown)
VH: B1 VH
VL: B1 VL with Q3V, L10S
IC50 (nM), huCD73 enzymatic assay in solution [1]: 6.17 nM

B14: 60A9-H4L1 (antibody, V domains shown)
VH: B1 VH with M48I, N61S, P62G, F68A, I70L, T74K
VL: B1 VL
IC50 (nM), huCD73 enzymatic assay in solution [1]: 3.1 nM

B15: 60A9-H4L3 (antibody, V domains shown)
VH: B1 VH with M48I, N61S, P62G, F68A, I70L, T74K
VL: B1 VL with I54V
IC50 (nM), huCD73 enzymatic assay in solution [1]: 2.74 nM

B16: 60A9-H5L3 (antibody, V domains shown)
VH: B1 VH with R38K, A40R, M48I, N61S, P62G, S63K, V64F, F68A, I70L, T74K
VL: B1 VL with I54V
IC50 (nM), cell-based CD73 activity assay (A375 cells) [2]: 36.4 nM

B17: 60A9-H2L2 (antibody, V domains shown)
VH: B1 VH with Q16G, K19R, M48V, A79L, L83M, N85S
VL: B1 VL with Q3V, L10S
IC50 (nM), huCD73 enzymatic assay in solution [1]: 11.2 nM

B18: 60A9-H1L3 (antibody, V domains shown)
VH: B1 VH
VL: B1 VL with I54V
IC50 (nM), huCD73 enzymatic assay in solution [1]: 4.96 nM

B19: 60A9-H3L1 (antibody, V domains shown)
VH: B1 VH with M48I, F68A, I70L, T74K
VL: B1 VL
IC50 (nM), huCD73 enzymatic assay in solution [1]: 2.94 nM

B20: 39G8-H1L3 (antibody, V domains shown)
VH: QVQLVQSGAEVKKPGASVKVSCKASGYTFTSYWMHWVRQAPGQGLEWIGEIDPSGGYTNYAQKFQGRSTLTVDKSISTAYMELSRLRSDDTAVYYCARNYYYGSSGTMDYWGQGTLVTVSS
VL: DIVMTQSPDSLAVSLGERATMSCKSSQSLLNSSNQKNYLAWYQQKPGQPPKLLVYFASTRESGVPDRFSGSGSGTDFTLTISSLQAEDVAVYFCQQHYSTPYTFGGGTKVEIK
IC50 (nM), cell-based CD73 activity assay (A375 cells) [2]: 49.6 nM

B21: 39G8-H3L3 (antibody, V domains shown)
VH: B20 VH with A61N
VL: B20 VL
IC50 (nM), cell-based CD73 activity assay (A375 cells) [2]: 56.1 nM

B22: 39G8-H2L3 (antibody, V domains shown)
VH: B20 VH with K74T
VL: B20 VL
IC50 (nM), cell-based CD73 activity assay (A375 cells) [2]: 66.3 nM
